Experimental data from a protein production outcome set (Wang et al. 2014).

Assay: label from the status in PepcDB records

In the case of “SLENLATAPVNQIQETISDNCVVIFSKTSCSYCTMAKKLFHDMNVNYKVVELDLLEYGNQFQDALYKMTGERTVPRIFVNGTFIGGATDTHRLHKEGKLLPLVHQCYLKKSKRKEFQ”, the protein production is reported as “not failed”.

For “MSSLALRSPALALALTLGGLLLCGPVQAQQANSANDMVGRMQYRISELERLVQDLTGKVEQSLYENRQLQTKLENAQSDIDFRLNALESAGPAAAAPANSVPSSARPTASAGAGKQGTPAPAEGVLGFPGKTAPAQGAASAARPAAAGALPAGSENDQYNYAFSLLRNADYPAAEQAFKAFLDQHPKGSLAGNAQYWLGETYYVRGDYEQAAVAFMGGYQSHPDSSKGPDNLLKLGLAMANLGKSKEACAAFGRLESQYPKAADAIKRRAKEGMSKLGC”, the protein production was “failed”.

For “MSPMTIPSEMKALLLVGDGYTKTPSGSALEAMEPYLEQGRIAVPAPGPSQVLIKVNLASINPSDVAFIKGQYGQPRVKGRPAGFEGVGTIVAGGDEPYAKSLVGKRVAFATGLSNWGSWAEYAVAEAAACIPLLDTVRDEDGAAMIVNPLTAIAMFDIVKQEGEKAFVMTAGASQLCKLIIGLAKEEGFRPIVTVRRDEQIALLKDIGAAHVLNEKAPDFEATLREVMKAEQPRIFLDAVTGPLASAIFNAMPKRARWIIYGRLDPDATVIREPGQLIFQHKHIEGFWLSEWMRQFKERRGPAILEAQKRFSDGRWSTDVTAVVPLAEAIAWVPAELTKPNGKVFIRP”, the protein production was “not failed”.

For “MNSPFAAETLLFERSRPRPEALRVIYGFPNTYSVGITSLGYQLVWAQLASRADVAVSRLFTDVQEPLPRDPELVGFSFSWELDYGNLLVLLEQLGIPIWQRDRHDCHPLVFGGGPVLTANPEPFADFFDVILLGDAEPLLDPFLTTMAQVRTAARSQRLEALAHVPGIYVPSLYHVSYSHPTGPIQRIEPIKASVPPTVTKQVHRGHTLAASTVVTPLAAWENIYMVEVVRSCPELCRFCLASYLTLPFRTPSLETLIPAIERGLAVTDRLGLLGASITQHPEFPALIEHLGQPQFDHVRVSLASVRTNTVTESLAQLLSQRGSQSLTIAIETGSERLRQVINKKLETEEILAAASHAQAGGLKGLKFYGMVGLPTETDADVAATVDLFCQLKKTAPRLRLTLGCSTFVPKAHTPFQWWGVQPVAEKRLKFLKKELAKLGIEFRPESYNDSLIQALISRGDRRLAPLLEQVRHYGTSLGSYRRAFKERQGQLPDFEAYVNANWPEETVLPWQHLQSGLPTKTLENHLKRAIALEHHHHHH”, the protein production was “failed”.

For “MPLPPSNGMGTAALVLGIISTVVFCLWPLAIVMGVLSVVFGVIGRRRARRGEATNAGQALAGIICGAVGIVLGVAFMVIIFAAAESSSDPWSTTDDSYSTSLVVHADR”, the protein production was “failed”.

In the case of “MGHNAINRLQLVATLAEREVMRYTPAGVPIVNCLLSYSGQAMEAQAARQVEFSIEALGAGKMASVLDRIAPGTVLECVGFLARKHRSSKALVFHISGCNVFVKDLEHHHHHH”, the protein production is reported as “not failed”.

For “MKLIVVTTPTFFVEEDKIITALFEEGLDILHLRKPETPAMYSERLLTLIPEKYHRRIVTHEHFYLKEEFNLMGIHLNARNPSEPHDYAGHVSCSCHSVEEVKNRKHFYDYVFMSPIYDSISKVNYYSTYTAEELREAQKAKIIDSKVMALGGINEDNLLEIKDFGFGGAVVLGDLWNKFDACLDQNYLAVIEHFKKLKKLADLEHHHHHH”, the protein production was “not failed”.

With “RRLPTVLLKLRMAQHLQAAVAFVEQGHVRVGPDVVTDPAFLVTRSMEDFVTWVDSSKI” the protein production was “not failed”.

In the case of “MPGVTVKDIDQHAVTKAVAVFLKKTGKLKVPDQMDIVKTAKFKELAPYDPDWFYVRCASILRHLYHRSPAGVGSITKIYGGRKRNGVHPSHFCRAADGAARKALQALEHARLVEKHPDGGRKLSSIGQRDLDRIANQIVFKQRDAAKQTGPIVISK”, the protein production is reported as “failed”.

In the case of “MSQSPSPPDSPSASPDSPSASPMHAFLLCAGFGTRMRPVTAETPKSLVTVAGRPLLDHLLDELTAWSALTEIHVAVNHEDAPAFREWAAGHRADLETQGIGLHLHDDGVEAPDDQLGCVGDLRFLLDAVGLPADGALVSGGDSLYRFPLAPLLNAYDGTTNRVLALHEPDPERRAQSSVLQLDGPTVTAVHDDPTGTASTRICPSWLLLSAEGLGAIVPYLDDGGPPDTLGAFLDRLARTHSVQAHRLPQTGHLRLHCNTPDDLEHARKLLRKGPRHVLGPAPVRASLPEPAS”, the protein production is reported as “failed”.

In the case of “MRVNGLTKGFFILIVFIVTLAFFDVLSPYYSAILWAAILAVIFNPVKNKIRTRLGERNGLAALMTIVIICLIVFTPLAIILSSLAYELNLVYSKLQHNDTQFPTVVASLFAHLPGWARSFLADHNLDSAQQIQQQLSDAALKGGQYLAGSAFLIGKGTFGFTVSFGIMLYLLFFLLKDGPYLVLLILESLPLSSYVKQHLFAKFAAVARATVKGTVAVALAQGALGGFAFWIAGLDGSILWGALMAFLSLIPAVGSAIIWVPAAIYLFATGQLWQGAFIVGFFVIVIGLVDNILRPLLVGKDTRMPDYLILIATLGGMEIYGINGFVIGPLIAALFIACWNLLSGREHAGNTDEIDEEFIEEAKNSRNE”, the protein production is reported as “failed”.

With “MTNLTNYHSHCLYCDGRANMEDFIRFAISEGFSSYGISSHAPLPFSTAWTMEWDRMDDYLSEFARLKEKYADKIELAIGLEIDYLNEESHPAIPRFQELPLDYRIGSVHMLYSPQGKVVDIDTPADIFRQLIDAHFEGDLDYVVHLYYKNLLRMVELGGFDILGHADKMHYNASCYRPGLLDEPWYDALVRDYFAEIARHGYIVEINTKSYHDLGTFYPNERYFPLLKELGIRVQVNSDAHYPERINNSRAEALAALKKVGFDTVVEWHGGQWKDMPLLQLEHHHHHH” the protein production was “not failed”.

With “MKKLFFIFLGSCTFALGTLGIFLPLLPTTGFYLLTAFFWMRSSDKLYNKFLASSYYQKYIQEAFFEKKITRKGKWKLFISMFLLFAIPCLIVRNTLMTTTLAIVYLAHVIGLSWYWRPKKKALELDQE” the protein production was “failed”.

With “MARRWTPQRFVMLRRVRVVICVTTVTLASVLAFGVGARKTVALTVNGETTTVTTYAMSVDRLLQEQQVKVKTHDLVESTSSGTLQNHSVVTVRSAYQTTVTIDGQEVPFWTVATSADQLLGFFEANEAEASKITVNIDNVYNKLTGGLVINQNGPVTVIADGKSSVSPNGKLPAASILDSKGIILNKEDRVSVEKDNGETILRVQRVTHDEQTRTKTVPHGTQTIIDASLQPGEAVVRQEGEDGEIQQTYDVTYVDGVEESEKLINEVTTKIAIDQIIAVGPEKTESSDADNADNGQADSGSNDSDSSKSDKKDESDKKDSDSTDKKNDSSEKNDSTSTPTTEPTQTPTPTPTPTQQQQQTQTTTNPSDGCRLYHPSAAQAQTYAAGAAAQYGWTGQHWTNLVKLWNRESSWLWYSENASSGAYGIPQSLPGSKMASFGANWRDDAAVQIDWGLNYIAQRYGNPTKAREHSEQYGWY” the protein production was “failed”.

For “MPASPEESAMTPWTPIARLEEIPRQGARVVATPEGAIAVFRTLDDRVFALLDRCPHKGGPLSQGIVHGARVACPLHNWVIELDSGQAVAPDEGCVRRFETRLEDGMVAIALPDSLVGTLEHHHHHH”, the protein production was “not failed”.

In the case of “MAEVRQNPVVIVPGVLFWDSLYEVMREALSTWIPAEKIAIVPVNLLDWLGFPPSPERSTNRVMAALDRTVRAMASRFPGEPVTIVAHSGGGTVAMIYLLERPFQGDVYAVNGLVGRLVTLGTPFHTHEHFAKIKTDFIFKHLGPEFFQKYQVVSVVSNQYKGSLDGGMIEKMCYMFYRGVTDDGNLAGDGVVPARSCFLDGAKNVTILECEHLPAPHTKWYGTKDGVEQWIEWL”, the protein production is reported as “failed”.

In the case of “MTLLEAISNAVANQDKVDSQSDYPIPLSHDGIFANLKPKLENPNLGTLVNPISGWGISESDVEVIDLGKKFSSKLKRKLKDTNGFVKDEFVKMLKQFLEKIGEKVGISEAESEMVLGDQAGSEIQILVEKNGFLMGRDVSGLVLKGCISLEMWELVEILISNSLVDHSSYSYLVSNLVEKQRSDLLCVVIKEASDLGATELLSILKYFLCPSKEAISTMAKVREEWESQAMLAIEKVSNTELSKKSKVAEEASILLMVAHDGFSTSELCLHYLLASRNVDEVMFASAVSKLNGNEMGSFIRYLSKWMKKYEMFPQAGPCPKAASKLGLKLCNWVPELTDITKCLGLLIDENFSTLVLYSDLHEELKSIARVADGLASESKLSCFVANVVESLKLGAARN”, the protein production is reported as “failed”.

In the case of “MGSSHHHHHHSSGLVPRGSHMLEGIIEEKALFVTCGATVPFPKLVSCVLSDEFCQELIQYGFVRLIIQFGRNYSSEFEHLVQERGGQRESQKIPIDQFGCGDTARQYVLMNGKLKVIGFDFSTKMQSIIRDYSDLVISHAGTGSILDSLRLNKPLIVCVNDSLMDNHQQQIADKFVELGYVWSCAPTETGLIAGLRASQTEKLKPFPVSHNPSFERLLVETIYS”, the protein production is reported as “not failed”.
